Ends that are not written are not given here.
B1: JNK1 (as used in the fluorescence polarization titrations) (enzyme)
chain: MSRSKRDNNFYSVEIGDSTFTVLKRYQNLKPIGSGAQGIVCAAYDAILERNVAIKKLSRPFQNQTHAKRAYRELVLMKCVNHKNIIGLLNVFTPQKSLEEFQDVYIVMELMDANLCQVIQMELDHERMSYLLYQMLCGIKHLHSAGIIHRDLKPSNIVVKSDCTLKILDFGLARTAGTSFMMTPYVVTRYYRAPEVILGMGYKENVDLWSVGCIMGEMVCHKILFPGRDYIDQWNKVIEQLGTPCPEFMKKLQPTVRTYVENRPKYAGYSFEKLFPDVLFPADSEHNKLKASQARDLLSKMLVIDASKRISVDEALQHPYINVWYDPSEAEAPPPKIPDKQLDEREHTIEEWKELIYKEVMDLEERTKNGVIRGQPSPLGAAVINGSQHPSSSSSVNDVSSMSTDPTLASDTDSSLEAAAGPLGCCR

Columns and labels:
Assay in all cases: FP
[1] = target: p38α (as used in the fluorescence polarization titrations) (human, UniProt Q16539 1-360)
[2] = target: B1
[3] = target: ERK2 (as used in the fluorescence polarization titrations) (human, UniProt P28482 1-360)
[4] = target: GAB3+ peptide

Row | Kd [1] [µM] | Kd [2] [µM] | Kd [3] [µM] | Kd [4] [µM] | Binder
1 | 74.6 | 3.5 |  |  | RPTRLSL (not fully specified) [IRS1 peptide]
2 | 24.5 |  | 14.4 |  | KEKSGSLKLRIP (not fully specified) [CCNT2 peptide]
3 |  |  |  | 13.2 | B1
4 |  | 21.1 |  |  | DPLHPTL (also: non-native Glu flanks added at both ends, number not given here) [ATF7 peptide]
5 |  | 19.3 | 84.7 |  | RPQDLNL (not fully specified) [MKP5 peptide]
6 |  | 10.8 |  |  | RPKSLNL (not fully specified) [APBA2 peptide]
7 | 8.2 |  | 17.5 |  | KRRSLRVHIP (not fully specified) [AAKG2 peptide]
8 |  | 5.1 | 31.8 |  | RPKSLQL (not fully specified) [DOCK5 peptide]
9 | 1.2 |  |  |  | LQRKKPPWLKLDIP (not fully specified) [RHDF1 peptide]
10 | 29.5 | 16.7 |  |  | RKHKDLYLPL (not fully specified) [DCX peptide]
11 | 8.9 |  | 15 |  | KKIQPKLSLT (not fully specified) [JAZF1 peptide]
12 | 4.9 | 24.7 | 13.5 |  | KKKSKPLNLKIH (not fully specified) [KSR2 peptide]
13 |  | 15.9 |  |  | RPTSLAL (not fully specified) [MYO9B peptide]
14 | 5.2 | 14.5 | 22.6 |  | RHRDKRLSLNLP (not fully specified) [GAB3 peptide]
15 |  | 16.4 |  |  | RPTTLPL (not fully specified) [PDE4B peptide]
16 |  | 7.3 | 51.2 |  | RPASLNL (not fully specified) [DOCK7 peptide]

— paper PMC4670726 (2015)
